Test results: paper PMC10033314
Where two headings read alike, the source gives them in different places.

Assays:
[1] = molecular target: Quenched-fluorescent peptide substrate fluorescein-5(6)-carbonyl-Ala-Glu-Leu-Asn-Gly-Arg-Pro-Ile-Ser-Ile-Ala-Lys(5(6)-TAMRA)
[2] = molecular target: Versican V1-5GAG (truncated V1, residues 21-694) (UniProt P13611)
ADAMTS1 (Homo sapiens) = ADAMTS1 (Homo sapiens) (UniProt Q9UHI8); details: cited from earlier work
[3] = molecular target: Versican G3 (Homo sapiens) (UniProt P13611); details: cited from earlier work
[4] = molecular target: Versican V1-5GAG (truncated V1, residues 21-694) (UniProt P13611); remark: listed apart in the source

**Q.** Which kcat/Km for proteolysis of the QF peptide [1] does the source give for “ADAMTS1 variant MD (truncated after the disintegrin-like domain) (domain or fragment)” here?
**A.** 6100 M⁻¹ s⁻¹

**Q.** What about the kcat/Km for cleavage of V1-5GAG (50 nM), time course with versikine ELISA [2] of the same molecule?
**A.** 61 M⁻¹ s⁻¹

**Q.** Which results are given for “ADAMTS1 variant MDT (truncated after the central TSR motif) (domain or fragment)”?
**A.** kcat/Km for proteolysis of the QF peptide [1]: 6200 M⁻¹ s⁻¹; kcat/Km for cleavage of V1-5GAG (50 nM), time course with versikine ELISA [2]: 66 M⁻¹ s⁻¹

**Q.** Which results are given for “ADAMTS1 variant MDTCS (truncated after the spacer domain) (domain or fragment)”?
**A.** kcat/Km for proteolysis of the QF peptide [1]: 7600 M⁻¹ s⁻¹; kcat/Km for cleavage of V1-5GAG (50 nM), time course with versikine ELISA [2]: 7300 M⁻¹ s⁻¹

**Q.** For Fibulin-1 (from UniProt P23142), which Kd (ADAMTS1 (Homo sapiens)) is on record?
**A.** 1000 nM

**Q.** With “Fibulin-1 domain II (from UniProt P23142)” as the molecule, how does the Kd [3] read?
**A.** 26 nM

B1: ADAMTS1 K735Q (β1-β2 loop of the spacer domain) (enzyme)
chain: FVSSHRYVETMLVADQSMAEFHGSGLKHYLLTLFSVAARLYKHPSIRNSVSLVVVKILVIHDEQKGPEVTSNAALTLRNFCNWQKQHNPPSDRDAEHYDTAILFTRQDLCGSQTCDTLGMADVGTVCDPSRSCSVIEDDGLQAAFTTAHELGHVFNMPHDDAKQCASLNGVNQDSHMMASMLSNLDHSQPWSPCSAYMITSFLDNGHGECLMDKPQNPIQLPGDLPGTSYDANRQCQFTFGEDSKHCPDAASTCSTLWCTGTSGGVLVCQTKHFPWADGTSCGEGKWCINGKCVNKTDRKHFDTPFHGSWGMWGPWGDCSRTCGGGVQYTMRECDNPVPKNGGKYCEGKRVRYRSCNLEDCPDNNGKTFREEQCEAHNEFSKASFGSGPAVEWIPKYAGVSPKDRCKLICQAKGIGYFFVLQPKVVDGTPCSPDSTSVCVQGQCVKAGCDRIIDSKKKFDKCGVCGGNGSTCKKISGSVTSAQPGYHDIITIPTGATNIEVKQRNQRGSRNNGSFLAIKAADGTYILNGDYTLSTLEQDIMYKGVVLRYSGSSAALERIRSFSPLKEPLTIQVLTVGNALRPKIKYTYFVKKKKESFNAIPTFSAWVIEEWGECSKSCELGWQRRLVECRDINGQPASECAKEVKPASTRPCADHPCPQWQLGEWSSCSKTCGKGYKKRSLKCLSHDGGVLSHESCDPLKKPKHFIDFCTMAECS
**Q.** Which kcat/Km for cleavage of V1-5GAG (50 nM), time course with versikine ELISA [4] does the source give for B1 here?
**A.** 4800 M⁻¹ s⁻¹

B2: ADAMTS1 R756Q/R759Q/R762Q (β3-β4 loop of the spacer domain) (enzyme)
chain: FVSSHRYVETMLVADQSMAEFHGSGLKHYLLTLFSVAARLYKHPSIRNSVSLVVVKILVIHDEQKGPEVTSNAALTLRNFCNWQKQHNPPSDRDAEHYDTAILFTRQDLCGSQTCDTLGMADVGTVCDPSRSCSVIEDDGLQAAFTTAHELGHVFNMPHDDAKQCASLNGVNQDSHMMASMLSNLDHSQPWSPCSAYMITSFLDNGHGECLMDKPQNPIQLPGDLPGTSYDANRQCQFTFGEDSKHCPDAASTCSTLWCTGTSGGVLVCQTKHFPWADGTSCGEGKWCINGKCVNKTDRKHFDTPFHGSWGMWGPWGDCSRTCGGGVQYTMRECDNPVPKNGGKYCEGKRVRYRSCNLEDCPDNNGKTFREEQCEAHNEFSKASFGSGPAVEWIPKYAGVSPKDRCKLICQAKGIGYFFVLQPKVVDGTPCSPDSTSVCVQGQCVKAGCDRIIDSKKKFDKCGVCGGNGSTCKKISGSVTSAKPGYHDIITIPTGATNIEVKQQNQQGSQNNGSFLAIKAADGTYILNGDYTLSTLEQDIMYKGVVLRYSGSSAALERIRSFSPLKEPLTIQVLTVGNALRPKIKYTYFVKKKKESFNAIPTFSAWVIEEWGECSKSCELGWQRRLVECRDINGQPASECAKEVKPASTRPCADHPCPQWQLGEWSSCSKTCGKGYKKRSLKCLSHDGGVLSHESCDPLKKPKHFIDFCTMAECS
**Q.** Which kcat/Km for cleavage of V1-5GAG (50 nM), time course with versikine ELISA [4] does the source give for B2 here?
**A.** 870 M⁻¹ s⁻¹

B3: ADAMTS1 K795Q (β6-β7 loop of the spacer domain) (enzyme)
chain: FVSSHRYVETMLVADQSMAEFHGSGLKHYLLTLFSVAARLYKHPSIRNSVSLVVVKILVIHDEQKGPEVTSNAALTLRNFCNWQKQHNPPSDRDAEHYDTAILFTRQDLCGSQTCDTLGMADVGTVCDPSRSCSVIEDDGLQAAFTTAHELGHVFNMPHDDAKQCASLNGVNQDSHMMASMLSNLDHSQPWSPCSAYMITSFLDNGHGECLMDKPQNPIQLPGDLPGTSYDANRQCQFTFGEDSKHCPDAASTCSTLWCTGTSGGVLVCQTKHFPWADGTSCGEGKWCINGKCVNKTDRKHFDTPFHGSWGMWGPWGDCSRTCGGGVQYTMRECDNPVPKNGGKYCEGKRVRYRSCNLEDCPDNNGKTFREEQCEAHNEFSKASFGSGPAVEWIPKYAGVSPKDRCKLICQAKGIGYFFVLQPKVVDGTPCSPDSTSVCVQGQCVKAGCDRIIDSKKKFDKCGVCGGNGSTCKKISGSVTSAKPGYHDIITIPTGATNIEVKQRNQRGSRNNGSFLAIKAADGTYILNGDYTLSTLEQDIMYQGVVLRYSGSSAALERIRSFSPLKEPLTIQVLTVGNALRPKIKYTYFVKKKKESFNAIPTFSAWVIEEWGECSKSCELGWQRRLVECRDINGQPASECAKEVKPASTRPCADHPCPQWQLGEWSSCSKTCGKGYKKRSLKCLSHDGGVLSHESCDPLKKPKHFIDFCTMAECS
**Q.** With B3 as the molecule, how does the kcat/Km for cleavage of V1-5GAG (50 nM), time course with versikine ELISA [4] read?
**A.** 730 M⁻¹ s⁻¹

B4: ADAMTS1 K735Q/K795Q (β1-β2 and β6-β7 loops of the spacer domain) (enzyme)
chain: FVSSHRYVETMLVADQSMAEFHGSGLKHYLLTLFSVAARLYKHPSIRNSVSLVVVKILVIHDEQKGPEVTSNAALTLRNFCNWQKQHNPPSDRDAEHYDTAILFTRQDLCGSQTCDTLGMADVGTVCDPSRSCSVIEDDGLQAAFTTAHELGHVFNMPHDDAKQCASLNGVNQDSHMMASMLSNLDHSQPWSPCSAYMITSFLDNGHGECLMDKPQNPIQLPGDLPGTSYDANRQCQFTFGEDSKHCPDAASTCSTLWCTGTSGGVLVCQTKHFPWADGTSCGEGKWCINGKCVNKTDRKHFDTPFHGSWGMWGPWGDCSRTCGGGVQYTMRECDNPVPKNGGKYCEGKRVRYRSCNLEDCPDNNGKTFREEQCEAHNEFSKASFGSGPAVEWIPKYAGVSPKDRCKLICQAKGIGYFFVLQPKVVDGTPCSPDSTSVCVQGQCVKAGCDRIIDSKKKFDKCGVCGGNGSTCKKISGSVTSAQPGYHDIITIPTGATNIEVKQRNQRGSRNNGSFLAIKAADGTYILNGDYTLSTLEQDIMYQGVVLRYSGSSAALERIRSFSPLKEPLTIQVLTVGNALRPKIKYTYFVKKKKESFNAIPTFSAWVIEEWGECSKSCELGWQRRLVECRDINGQPASECAKEVKPASTRPCADHPCPQWQLGEWSSCSKTCGKGYKKRSLKCLSHDGGVLSHESCDPLKKPKHFIDFCTMAECS
**Q.** For B4, which kcat/Km for cleavage of V1-5GAG (50 nM), time course with versikine ELISA [4] is on record?
**A.** 570 M⁻¹ s⁻¹

B5: ADAMTS1 K818Q (β8-β9 loop of the spacer domain) (enzyme)
chain: FVSSHRYVETMLVADQSMAEFHGSGLKHYLLTLFSVAARLYKHPSIRNSVSLVVVKILVIHDEQKGPEVTSNAALTLRNFCNWQKQHNPPSDRDAEHYDTAILFTRQDLCGSQTCDTLGMADVGTVCDPSRSCSVIEDDGLQAAFTTAHELGHVFNMPHDDAKQCASLNGVNQDSHMMASMLSNLDHSQPWSPCSAYMITSFLDNGHGECLMDKPQNPIQLPGDLPGTSYDANRQCQFTFGEDSKHCPDAASTCSTLWCTGTSGGVLVCQTKHFPWADGTSCGEGKWCINGKCVNKTDRKHFDTPFHGSWGMWGPWGDCSRTCGGGVQYTMRECDNPVPKNGGKYCEGKRVRYRSCNLEDCPDNNGKTFREEQCEAHNEFSKASFGSGPAVEWIPKYAGVSPKDRCKLICQAKGIGYFFVLQPKVVDGTPCSPDSTSVCVQGQCVKAGCDRIIDSKKKFDKCGVCGGNGSTCKKISGSVTSAKPGYHDIITIPTGATNIEVKQRNQRGSRNNGSFLAIKAADGTYILNGDYTLSTLEQDIMYKGVVLRYSGSSAALERIRSFSPLQEPLTIQVLTVGNALRPKIKYTYFVKKKKESFNAIPTFSAWVIEEWGECSKSCELGWQRRLVECRDINGQPASECAKEVKPASTRPCADHPCPQWQLGEWSSCSKTCGKGYKKRSLKCLSHDGGVLSHESCDPLKKPKHFIDFCTMAECS
**Q.** With B5 as the molecule, how does the kcat/Km for cleavage of V1-5GAG (50 nM), time course with versikine ELISA [4] read?
**A.** 6050 M⁻¹ s⁻¹

B6: ADAMTS1 variant 828-835 (β9-β10 loop residues 828-835 replaced by ADAMTS4 residues 788-795) (enzyme)
chain: FVSSHRYVETMLVADQSMAEFHGSGLKHYLLTLFSVAARLYKHPSIRNSVSLVVVKILVIHDEQKGPEVTSNAALTLRNFCNWQKQHNPPSDRDAEHYDTAILFTRQDLCGSQTCDTLGMADVGTVCDPSRSCSVIEDDGLQAAFTTAHELGHVFNMPHDDAKQCASLNGVNQDSHMMASMLSNLDHSQPWSPCSAYMITSFLDNGHGECLMDKPQNPIQLPGDLPGTSYDANRQCQFTFGEDSKHCPDAASTCSTLWCTGTSGGVLVCQTKHFPWADGTSCGEGKWCINGKCVNKTDRKHFDTPFHGSWGMWGPWGDCSRTCGGGVQYTMRECDNPVPKNGGKYCEGKRVRYRSCNLEDCPDNNGKTFREEQCEAHNEFSKASFGSGPAVEWIPKYAGVSPKDRCKLICQAKGIGYFFVLQPKVVDGTPCSPDSTSVCVQGQCVKAGCDRIIDSKKKFDKCGVCGGNGSTCKKISGSVTSAKPGYHDIITIPTGATNIEVKQRNQRGSRNNGSFLAIKAADGTYILNGDYTLSTLEQDIMYKGVVLRYSGSSAALERIRSFSPLKEPLTIQVLTAGNPQDTRIKYTYFVKKKKESFNAIPTFSAWVIEEWGECSKSCELGWQRRLVECRDINGQPASECAKEVKPASTRPCADHPCPQWQLGEWSSCSKTCGKGYKKRSLKCLSHDGGVLSHESCDPLKKPKHFIDFCTMAECS
**Q.** Which kcat/Km for cleavage of V1-5GAG (50 nM), time course with versikine ELISA [4] does the source give for B6 here?
**A.** 410 M⁻¹ s⁻¹

B7: ADAMTS1 variant 756-765/828-835 (β3-β4 and β9-β10 loops replaced by those of ADAMTS4) (enzyme)
chain: FVSSHRYVETMLVADQSMAEFHGSGLKHYLLTLFSVAARLYKHPSIRNSVSLVVVKILVIHDEQKGPEVTSNAALTLRNFCNWQKQHNPPSDRDAEHYDTAILFTRQDLCGSQTCDTLGMADVGTVCDPSRSCSVIEDDGLQAAFTTAHELGHVFNMPHDDAKQCASLNGVNQDSHMMASMLSNLDHSQPWSPCSAYMITSFLDNGHGECLMDKPQNPIQLPGDLPGTSYDANRQCQFTFGEDSKHCPDAASTCSTLWCTGTSGGVLVCQTKHFPWADGTSCGEGKWCINGKCVNKTDRKHFDTPFHGSWGMWGPWGDCSRTCGGGVQYTMRECDNPVPKNGGKYCEGKRVRYRSCNLEDCPDNNGKTFREEQCEAHNEFSKASFGSGPAVEWIPKYAGVSPKDRCKLICQAKGIGYFFVLQPKVVDGTPCSPDSTSVCVQGQCVKAGCDRIIDSKKKFDKCGVCGGNGSTCKKISGSVTSAKPGYHDIITIPTGATNIEVKQQGNPGHRSSFLAIKAADGTYILNGDYTLSTLEQDIMYKGVVLRYSGSSAALERIRSFSPLKEPLTIQVLTAGNPQDTRIKYTYFVKKKKESFNAIPTFSAWVIEEWGECSKSCELGWQRRLVECRDINGQPASECAKEVKPASTRPCADHPCPQWQLGEWSSCSKTCGKGYKKRSLKCLSHDGGVLSHESCDPLKKPKHFIDFCTMAECS
**Q.** Which kcat/Km for cleavage of V1-5GAG (50 nM), time course with versikine ELISA [4] does the source give for B7 here?
**A.** 460 M⁻¹ s⁻¹
